The text below walks through data of article PMC2734569, “Functional mapping of the fission yeast DNA polymerase δ B-subunit Cdc1 by site-directed and random pentapeptide insertion mutagenesis” (BMC Molecular Biology, 2009).

What all share (assay): two-hybrid; LexA-Cdc1 bait (pBTM116 or pBTM116BN) with Gal4 activation domain-Cdc27 prey (pGAD2F-Cdc27) in S. cerevisiae CTY10-5d; ONPG liquid culture beta-galactosidase assay, mean of triplicates, as percent of wild-type Cdc1
What all share (details): partners not purified

One assay addresses T1, Cdc1-E5 (Schizosaccharomyces pombe, UniProt P87324 1-462, Val-MetGlyTyrProVal-Met).
T1 construct: Cdc1, S. pombe, with a pentapeptide inserted after residue 86; source: yeast two-hybrid fusion, in S. cerevisiae CTY10-5d
T1 sequence (looked up): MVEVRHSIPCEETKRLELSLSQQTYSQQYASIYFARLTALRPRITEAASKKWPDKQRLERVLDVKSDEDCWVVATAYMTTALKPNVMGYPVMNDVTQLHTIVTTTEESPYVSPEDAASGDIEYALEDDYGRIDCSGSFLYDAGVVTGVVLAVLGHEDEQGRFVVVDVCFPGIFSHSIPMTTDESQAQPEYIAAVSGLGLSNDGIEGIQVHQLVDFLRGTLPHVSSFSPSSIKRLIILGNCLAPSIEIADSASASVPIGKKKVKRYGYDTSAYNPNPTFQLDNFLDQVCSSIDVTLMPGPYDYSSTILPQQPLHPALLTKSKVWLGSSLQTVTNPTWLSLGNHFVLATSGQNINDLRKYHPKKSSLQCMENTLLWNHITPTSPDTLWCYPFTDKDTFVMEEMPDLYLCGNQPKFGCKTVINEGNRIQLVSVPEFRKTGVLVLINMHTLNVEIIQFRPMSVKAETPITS

In a further assay the target is T2, Cdc1-J8 (Schizosaccharomyces pombe, UniProt P87324 1-462, Lys-GlyValProLeuLys-Pro).
T2 construct: Cdc1, S. pombe, with a pentapeptide inserted after residue 83; also called J19; source: yeast two-hybrid fusion, in S. cerevisiae CTY10-5d
T2 sequence (looked up): T1 sequence (looked up) with P84G, N85V, V86P, M87L, G88K, Y89P, P90N

A further assay concerns the target T3, Cdc1-J4 (Schizosaccharomyces pombe, UniProt P87324 1-462, Ile-GlyValProArgIle-Asp).
T3 construct: Cdc1, S. pombe, with a pentapeptide inserted after residue 127; also called J5; J13; source: yeast two-hybrid fusion, in S. cerevisiae CTY10-5d
T3 sequence (looked up): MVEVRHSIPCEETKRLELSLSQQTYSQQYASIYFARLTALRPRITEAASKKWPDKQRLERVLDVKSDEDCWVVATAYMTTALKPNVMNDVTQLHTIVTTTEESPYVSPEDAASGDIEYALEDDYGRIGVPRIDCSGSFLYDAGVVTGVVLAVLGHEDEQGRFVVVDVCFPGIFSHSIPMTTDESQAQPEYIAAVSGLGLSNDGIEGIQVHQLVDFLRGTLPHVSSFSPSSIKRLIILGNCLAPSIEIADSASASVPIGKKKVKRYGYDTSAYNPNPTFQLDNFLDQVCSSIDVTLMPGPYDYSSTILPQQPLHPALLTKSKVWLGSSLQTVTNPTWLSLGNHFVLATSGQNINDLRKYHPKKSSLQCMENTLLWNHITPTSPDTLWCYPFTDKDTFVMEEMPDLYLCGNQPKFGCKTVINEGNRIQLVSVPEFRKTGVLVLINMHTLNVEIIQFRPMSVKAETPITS

For another assay, the target named is T4, Cdc1-E9 (Schizosaccharomyces pombe, UniProt P87324 1-462, Tyr-GlyGlyTyrProTyr-Gly).
T4 construct: Cdc1, S. pombe, with a pentapeptide inserted after residue 124; source: yeast two-hybrid fusion, in S. cerevisiae CTY10-5d
T4 sequence (looked up): T3 sequence (looked up) with R126G, I127Y, G128P, V129Y, P130G

Where a chain is given by its changes, count along the chain named.

B1: Cdc27 (fission yeast DNA polymerase delta C-subunit) (natural protein, Schizosaccharomyces pombe, UniProt P30261 1-372, looked up)
chain: MEEWRNFLDIKVINESSLVTVDNLSLQLDISSEKAQEYLNMFYQGNDFLYPIYLIHGQPIDDEINLEIDEESQPISNFPVLQYILCDKSSLQEKQSRLKSGYKTVIFALSSAPLSDFDELLPAVYEIREKDVLYKKEDADKYGFIFNENSVPRVLKKAPSTHSPQLSVPSKTSTIDKTDTRSTEKTKGKDIFSNARNQKGNSSRKNKKAPLENHKEKEPLLPKEEKLSEQAKRERDDLKNIMQLEDESVSTTSVHDSEDDNLDSNNFQLEIGTEAKSAAPDEPQEIIKSVSGGKRRGKRKVKKYATTKDEEGFLVTKEEEVWESFSEDENISTGTSNVVRNKPTTVNIATKKKNTAQSKPQQKSIMSFFGKK
notes: DNA polymerase delta C-subunit Cdc27, S. pombe; prey plasmid pGAD2F-Cdc27; also called pGAD2F-Cdc27; source: yeast two-hybrid fusion, in S. cerevisiae CTY10-5d
With B1, the “two-hybrid beta-galactosidase activity, % of wild-type Cdc1” value was 88% in the assay with Cdc1-E5, 128% in the assay with Cdc1-J8, < 1% with Cdc1-J4 and < 1% with Cdc1-E9.
